Source: the DeepSol protein solubility set

Test: soluble on expression in E. coli; label from the status in PepcDB or PDB records

Row | Sequence | soluble on expression in E. coli
1 | MSLPSERELGKELEVSRLTVRKAIQELEQKGILYKIQGKGTFVNDRKKAGEHGNKIGVISHLYKGVFMEILEGIEEGLESESYEYLLRNSQNDYKKEENIIQAMKEEGVSGFIISPVEDQKDSNVIFNLKAEGYPIVLIDRKLNYCETDCVLSDNIDGGFKATEYLIKLGHSRIAFLTYEFRKTSSVRDRIKGYRYALKLNQLELDERLLFSYNKDLSREEKNKILYNFIKENKPTAIIGVHNDVALDVVKMCRANNISIPEDISIICFDNTDIVRHLEVPLTTLVQDARKIGYDAAKLIVKKINSQEETGIMNQIYHPVKLIERNSCKSILQKNEGHHHHHH | soluble
2 | MNGAIFPWREDSRFQLLIDGPAFFPRMIAAIDRAEQQVDLELYLVEAGACADAVVRALVEAGRRGVIVRCLFDDFGSKAFDAGLRKQLTDAGVILRFYNPIHWRRGVRNFYRDHRKILVVDKALAVVGGTGVTDEFWEPDKDVSQWHEVMVEIAGPLVLDWQALFDRQFHANARRFAWRPKQNFGLDHLPKAPVTGEGLGRVAYADSRQHRDILQSLVRTLHSGQKRIWLATPYFLPTWKVRRALRSAAARGVDVRLLLTGPRTDHPSVRYAGHRYYPRLLRAGVKVFEYQPCFLHLKMVLIDDWVSIGSCNFDHWNLHFNLEANLEAHDPGLTRDVAASFEKDFALSTEITLEDWKARPLWRRVKQRLWGWIDRLVVNLLDQRN | not soluble
3 | MAHHHHHHMPSAPTCQHGSYHQCECYGHNTQLPNYRHDISNPRTLQGYYAPNGGCPCPATCGAEKHGLYCSDRGADASAMPKLTFRAADGPHTVHSASDVDGNGRDPATSIRTAFPNSRNYGGTVAQRGPTTLSTRAQLSASRKARAEAKREERAQDRKNFLRGVLRDEMLARMDAEGKRAALEADTGLMGTHHGEEYEANQRAAGSMRGGLDSTSRDPDTVLTLGEQYREIMDELEYVADQPVGSKYNIIRLHYLVEEEDRLNRLRLQERIRKTAEAMQSKK | not soluble
4 | MLEKWEPIMAETRKLKYDEAALRTLTREDLDALEIGAGILGTGGGGNPYLGKLLALEAMKAGYEMKILATDAIEPDALCMSIGGIGAPVVGVERIREGREGLRCLRAMEELIRTPVDAIVCEEIGGSNSMNPLVTAALGGLPILDCDGMGRAFPEMQMTTFSIYGHSSTPSVMCDLHGNAVIFSHAVSEVWHERMARACVVAQGGGAMLATAPMQAHYVHQYGIPKTYTKAIAIGEAVIRARKQQEDPIAAVCALEGGRRIFNGKITDLKRHLRGGFAVGDLTLSGFDDCAGQTAGVAIQNEFLLFSRDGKVEVTVPDLIVLLDVDTGYPITTEVLRYGQRVAVIAIPCHDLLRSARALEVVGPAAFGYPDIPFSPLPLPVSKAALEHHHHHH | soluble
5 | MQVKLGFTEHSFNLIVSSTSMFKNLLASVGIGAAKVDTRLFNNSVIPGGILEGEVYIRGGDVAQDIQDIYLKLATEYQREVDDSTVTEECVMVNYRLLEHLTIQPKEEVVIPFSLNLPDEMPLTFGHIPVYVRTGLDIKSAINPRDRDYLEVRTHPLMQRVLLAIEHLGFHLHKVDCEYTHYFGGAYPFVQELEFRPTGKYRHSLDELEVVFRLTADQLEVLLEIDKRARGWKGWLEEAFDIDERYARLIVKQSDLYETDVEALIDQIIQSHLS | not soluble
6 | MTEQPAVAAPYDVLFEPVQIGPFTTKNRFYQVPHCNGMGYRDPSAQASMRKIKAEGGWSAVCTEQVEIHATSDIAPFIELRIWDDQDLPALKRIADAIHEGGGLAGIELAHNGMNAPNQLSRETPLGPGHLPVAPDTIAPIQARAMTKQDIDDLRRWHRNAVRRSIEAGYDIVYVYGAHGYSGVHHFLSKRYNQRTDEYGGSLENRMRLLRELLEDTLDECAGRAAVACRITVEEEIDGGITREDIEGVLRELGELPDLWDFAMGSWEGDSVTSRFAPEGRQEEFVAGLKKLTTKPVVGVGRFTSPDAMVRQIKAGILDLIGAARPSIADPFLPNKIRDGRLNLIRECIGCNICVSGDLTMSPIRCTQNPSMGEEWRRGWHPERIRAKESDARVLVVGAGPSGLEAARALGVRGYDVVLAEAGRDLGGRVTQESALPGLSAWGRVKEYREAVLAELPNVEIYRESPMTGDDIVEFGFEHVITATGATWRTDGVARFHTTALPIAEGMQVLGPDDLFAGRLPDGKKVVVYDDDHYYLGGVVAELLAQKGYEVSIVTPGAQVSSWTNNTFEVNRIQRRLIENGVARVTDHAVVAVGAGGVTVRDTYASIERELECDAVVMVTARLPREELYLDLVARRDAGEIASVRGIGDAWAPGTIAAAVWSGRRAAEEFDAVLPSNDEVPFRREVTQLA | soluble
7 | MAHHHHHHMTSPALAPPQNTAEFWIKRLQLVPHPEGGYYSEVVRSAHKVDNEEGNRRHAYTTIYFLCTPESPSHLHRLCSDETWMYHAGDPLQLHVILKDPQDEDRIAAQPPAAPQAETDTADARPKYQVYRRVLVGARVERGELLQYTVPGGAIFGSSVAADGADGQAGYSLVSCIVSPGFDYRDFEIFTQAQLMELYPQHEAVIKQMAYETLPNHARLQTTEI | soluble
8 | MGSDKIHHHHHHMSKVFIATANAGKAHDADIFSVSACNSFTVSCSGDGYLKVWDNKLLDNENPKDKSYSHFVHKSGLHHVDVLQAIERDAFELCLVATTSFSGDLLFYRITREDETKKVIFEKLDLLDSDMKKHSFWALKWGASNDRLLSHRLVATDVKGTTYIWKFHPFADESNSLTLNWSPTLELQGTVESPMTPSQFATSVDISERGLIATGFNNGTVQISELSTLRPLYNFESQHSMINNSNSIRSVKFSPQGSLLAIAHDSNSFGCITLYETEFGERIGSLSVPTHSSQASLGEFAHSSWVMSLSFNDSGETLCSAGWDGKLRFWDVKTKERITTLNMHCDDIEIEEDILAVDEHGDSLAEPGVFDVKFLKKGWRSGMGADLNESLCCVCLDRSIRWFREAGGK | not soluble
9 | MAHHHHHHMLDDLKTAYTPAVASKICYVASQLRIDATKGQPYTAVLEATMTAEGEQAMEVASLARIVHSCLVLRSGHLHEVLFTFIPFLREKAGTMDAVTTAVLINAYGRSGVHHPGLYKALCDNGATVLKDPRVPLAHIANVAYAVSRVKFLHPALMLTLRDHALRKVAEASPIISLTVLDAFTELRQIDDDLFNAYEQRLLGQLNELQAPLMASLVSCVVRAGRGKAEVMESLGARTVAIADTFDAASIAKVTNAYYEADVASEDVLGALAERACKVAADFRADEIATVLNALSAFDLFDAELFPLLASRLVALHRQGGYVDVADAAVILSSFAAVQERNDELIYVCTQLFAAYPGVAMDPAVRVNALWACASLNVHNEAQTKMLEEVRATPSLVMWESKTDTLPKAKATLEERTRFLAKVYGITISSSGAR | soluble
10 | MPCVFQIWEKGMEKQEIGIYGREKMFMRKKENELQIDWKHFYLGVLALVIPMALQNLINVGVTAADVVMLGRVGETALSGSSLAGQVQY | not soluble
11 | MGAGEKGIVEKEGYQLDTRRQAQAAYPRIKVLVIHYTADDFDSSLATLTDKQVSSHYLVPAVPPRYNGKPRIWQLVPEQELAWHAGISAWRGATRLNDTSIGIELENRGWQKSAGVKYFAPFEPAQIQALIPLAKDIIARYHIKPENVVAHADIAPQRKDDPGPLFPWQQLAQQGIGAWPDAQRVNFYLAGRAPHTPVDTASLLELLARYGYDVKPDMTPREQRRVIMAFQMHFRPTLYNGEADAETQAIAEALLEKYGQD | soluble
12 | MTVPSIVLNDGNSIPQLGYGVYKVPPADTQRAVEEALEVGYRHIDTAAIYGNEEGVGAAIAASGIARDDLFITTKLWNDRHDGDEPAAAIAESLAKLALDQVDLYLVHWPTPAADNYVHAWEKMIELRAAGLTRSIGVSNHLVPHLERIVAATGVVPAVNQIELHPAYQQREITDWAAAHDVKIESWGPLGQGKYDLFGAEPVTAAAAAHGKTPAQAVLRWHLQKGFVVFPGSVRREHLEENLDVFDFDLTDTEIAAIDAMDPGDGSGRVSGHPDEVD | soluble
13 | MREILNHFDRPLNKKNSFQKIQNLSCQTHTKRFYREVKISCEEGGFSVLLDGCPVKTPAKRHFCLPTEVFAAFVAEEFENQKQVIDPAKMPMTRLVNTVIDGIADNMQAVFEDLLRFVACDMIFYRAQTPKELVQRQCEQWDPLLDWAEEKLGARFHVTEGLMHIEQSRESIQAVSNYLRKVESPYMLAALHTITTLTGSALIALAFSEGKIDSEHAWKIAHLDENWMMEQWGIDEETLARSSHKKSEFDAAGTIITTCLLEHHHHHH | not soluble
14 | MGSDKIHHHHHHMMGLPTLEQMQFQHAAAQLNALHAELIDDDRLEEWPDLFEEKCQYSVISAENHNRSLNLAAVFCDSRGMLVDRIVSLRRANIFPAHSYRHILGPTRVKSTSGQIVTTQTNYVVLMTRNDGQTSIYNSGKYVDQIDVSGAAPRFLSKTAIFDTHLIDTMMVRPI | not soluble
15 | MGSDKIHHHHHHMKEVVKLVLLGERQNSLNLSLYFNKYPPTIIYPEVLEDRNKKLASPSGSQRKISLLVLNQGVLQFNKIKETIEKSLPIETKVKLPQKAYELYKKYYQDYTDMLNSLHAITGKFKTQSRLVVGLGDESVYETSIRLLRNYGVPYIPGSAIKGVTRHLTYYVLAEFINEGNDFYKRAKTVQDAFMKGDPKEILSNAKVPERCSRLCKEFLRIFGEKKVPEIIDELIRIFGTQKKEGEVVFFDAIPIAEEIADKPILELDIMNPHYGPYYQSGEKNVPPPGDWYDPIPIFFLTVPKDVPFLVAVGGRDRELTEKAFSLVKLALRDLGVGAKTSLGYGRLVEYV | not soluble
16 | QKGRVETRRVVHIMDFQRGKNLRYQLLQLVEPFGVISNHLILNKINEAFIEMATTEDAQAAVDYYTTTPALVFGKPVRVHLSQKYKRIK | soluble
17 | MRGSHHHHHHGSDPAPDAVAQQWAIFRAKYLRPSGRVVDTGNGGESHSEGQGYGMLFAASAGDLASFQSMWMWARTNLQHTNDKLFSWRFLKGHQPPVPDKNNATDGDLLIALALGRAGKRFQRPDYIQDAMAIYGDVLNLMTMKAGPYVVLMPGAVGFTKKDSVILNLSYYVMPSLLQAFDLTADPRWRQVMEDGIRLVSAGRFGQWRLPPDWLAVNRATGALSIASGWPPRFSYDAIRVPLYFYWAHMLAPNVLADFTRFWNNFGANALPGWVDLTTGARSPYNAPPGYLAVAECTGLDSAGELPTLDHAPDYYSAALTLLVYIARAEETIK | soluble
18 | MITVKNIEGSETYVLRQKILRPNQTLADCKYPSDYETDTFHLGAFINDQLISIASFSKEMHPDLQAGMHYRLRGMATLPEFRNNHAGSSLIQKAEQILQERQANMLWCNGRITVADYYKRLGFQEHGEIFEIEPIGLHKVLYKRI | not soluble
19 | SPSETLWEIAKAEVEKRRSHGSEGDGAEIGEKSVFFIGSKNGGKTTIILRCLDRDESAKPTLALEYTYGRKTKGHNTPKDIAHFWELGGGTSLLDLISIPITVDTLRTFSIVLVLDLSKPNDLWSTMENLLQATKSHVDKVIMKLGKTSSKASAEMRQRMWSVVQKDHPDRELIDPFPIPLVIIGSKYDIFQDFDPEKRKVICKTLRFVAHYYGASLMFTSKSEALLLKIRGVINQLAFGIDKSKSICVDQNKPLFITAGLDSLCQIGSPPVPDSDIGKLQAHSPMELWKKVYDKLFPPKSTGTLKAVQDPARDPQYAESEVDEMRVQKDQELEHYKRSSSKTWKQIELDS | soluble
